These results are taken from US20220195055A1 (SHANDONG BOAN BIOTECHNOLOGY, published 2022).

Where two headings read alike, the source gives them in different places.

In assay [1] the target is T1, CD25 protein (Sino Biological, 10165-H08H) (UniProt P01589 22-213).
T1 construct: Bought recombinant protein; It speaks elsewhere of human CD25; also called antigen CD25; IL-2Rα
T1 sequence (looked up): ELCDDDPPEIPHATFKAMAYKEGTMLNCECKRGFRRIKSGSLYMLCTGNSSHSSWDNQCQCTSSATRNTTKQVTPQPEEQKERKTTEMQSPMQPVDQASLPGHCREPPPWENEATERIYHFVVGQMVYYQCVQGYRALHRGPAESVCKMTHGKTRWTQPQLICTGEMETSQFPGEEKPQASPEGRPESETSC
Description: ELISA; CD25 protein coated in a dilution series, antibody at one fixed concentration, anti-human IgG/HRP. From the text:
(§1) The results are shown in FIG. 2A to FIG. 2E and Table 2 to Table 6.
Background: ELISA stands for enzyme-linked immunosorbent assay.

Assay [2] addresses T1, CD25 protein (Sino Biological, …). The assay can be described thus: SPR (BIAcore 8K); antibody captured by anti-human IgG Fc, CD25 protein as analyte, 1:1 model. The method, then: Antibody binding kinetics uses BIAcore8K instrument based on surface plasmon resonance (SRP) technology to measure. Anti-human IgG antibody amino was coupled to a CMS biosensor chip by the GE anti Human IgG Fc amino coupling kit (GE, cat # BR-1008-39) to obtain approximately 1000 response units (RU). For kinetic measurements, the CD25 protein (Sino Biological, 10165-H08H) was diluted 2-fold continuously with HBS-EP+1×(GE, BR-1008-26) buffer, starting at 50 nM, being diluted 2-fold for 4 concentration gradients and setting 0 concentration. The antibody to be detected: 2 μg/ml, sample injection time 70 s, flow rate 5 μL/min, stable for 5 s; CD25 protein: binding for 60 s, flow rate 30 μL/min, dissociation for 450 s; regeneration: regeneration was performed for 30 s with 3M MgCl₂ buffer, Startup 3 times. The association constant (ka) and dissociation constant (kd) were calculated using a simple one-to-one Languir binding model (BIAcore Evaluation Software version 3.2), and the equilibrium dissociation constant (KD) was calculated by the ratio kd/ka.
Background: In SPR one partner is held on a chip, and binding of the other changes the refractive index at the surface.

For assay [3] the target is unchanged. The assay can be described thus: ELISA; CD25 protein coated in a dilution series, antibody at one fixed concentration, anti-human IgG/HRP.
Excerpt: as §1
The source holds these as a separate data set.

In assay [4] the target is T2, CD25 on cells (SU-DHL-1 target cells; PBMC) (UniProt P01589 22-272, limits assumed).
T2 sequence (looked up): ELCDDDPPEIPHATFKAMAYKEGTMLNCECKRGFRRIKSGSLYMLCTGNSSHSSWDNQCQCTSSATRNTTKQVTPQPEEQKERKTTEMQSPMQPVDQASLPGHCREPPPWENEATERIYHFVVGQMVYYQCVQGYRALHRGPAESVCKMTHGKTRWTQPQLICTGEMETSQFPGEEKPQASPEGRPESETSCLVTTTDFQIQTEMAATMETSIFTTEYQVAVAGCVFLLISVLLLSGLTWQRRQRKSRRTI
The assay can be described thus: cell-based or functional assay.

The target of assay [5] is T2, CD25 on cells (SU-DHL-1 target cells; …). Description: cell-based or functional assay. The source holds these as a separate data set.
Assay [6] addresses T1, CD25 protein (Sino Biological, …). Description: ELISA; CD25 protein coated in a dilution series, antibody at one fixed concentration, anti-human IgG/HRP.
Excerpt: as §1
This is another data set of the same source.

For assay [7], the target named is T2, CD25 on cells (SU-DHL-1 target cells; …). The assay can be described thus: cell-based or functional assay. The source holds these as a separate data set.

B1: CD25Q11-BA406-IgG1 (antibody, V domains shown)
VH: EVQLVQSGAEVKKPGESLKISCKGSGYSFTNYWIAWVRQMPGKGLEWMGIIYPGDSVTRYSPSFQGQVTISADKSINTAYLQWSSLRASDTAMYYCARGPYYFEYWGQGTLVTVSS
VL: DIVMTQSPSTLSASVGDRVTITCRASQSISSFLAWYQQKPGRAPELLIYKASTLESRVPSRFSGSGSGTEFTLTISSLQPEDFATYYCQQYKSFSWTVGQGTKVEIKR
notes: IgG1 expressed in HEK293
With B1, the EC50 (commonly the concentration that produces a half-maximal response) in assay [1] was 0.651 ng/mL.

B2: CD25Q11-CA36-IgG1 (antibody, V domains shown)
VH: QVQLVQSGAEVKQPGSSVKVSCKTSGGTFGSSAINWVRQAPGQGLEWMGRIIPIFGVSNFAQKFQGRVTITADKSTNTAYMELSSLRSEDTAVYYCARDGSGYDSNYWYFDLWGRGTLVTVSS
VL: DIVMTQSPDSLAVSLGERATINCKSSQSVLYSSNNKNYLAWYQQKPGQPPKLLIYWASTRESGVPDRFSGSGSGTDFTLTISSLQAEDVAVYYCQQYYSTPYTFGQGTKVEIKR
notes: IgG1 expressed in HEK293
Regarding B2, in assay [2], the Kd (in general, a measure of binding affinity in units of concentration) is 1610 pM; the dissociation rate constant (koff) (usually the rate constant with which the complex falls apart) stood at 9.66e-05 s⁻¹; the kon (as a rule, a measure of how fast the partners come together) was determined as 60200 M⁻¹ s⁻¹. The EC50 in assay [1] turned out to be 2.41 ng/mL.

B3: CD25Q14-BA443-IgG1 (antibody, V domains shown)
VH: EVQLVQSGAEVKKPGESLKISCKGSGYSFSNYWIGWVRQMPGKGLEWMGIISPGDSTTKYSPSFQGQVTFSADKSTSTAYLQWSSLQASDTAMYYCVRGPYYLDYWGQGTLVTVSS
VL: DIQMTQSPSTLSASVGDRVTITCRASQSVSGYLAWYQQKPGKAPKLLIYKTSSLESGVPSRFSGSGSGTDFTLTISSLQAEDVAVYYCQQYYSTPWTFGQGTKVEIKR
notes: IgG1 expressed in HEK293
In assay [3], B3 registered an EC50 of 1.06 ng/mL. The “EC50 of simulated killing activity (Jurkat effector reporter cells, SU-DHL-1 target cells, luminescence)” value (“EC50 of simulated killing activity” below) in assay [4] is 360 ng/mL. In assay [2], this molecule registered a Kd of 1480 pM, a koff of 0.000201 s⁻¹ and a kon of 136000 M⁻¹ s⁻¹.

B4: CD25Q11-BA428-IgG1 (antibody, V domains shown)
VH: QVQLVQSGAEVKKPGESLKISCKGSGYSFTNYWIVWVRQMPGKGLEWMGIISPGDSTTRYSPSFQGQVTFSADKSISTAYLQWSSLKASDTAMYYCAIGPYYLEYWGQGTLVTVSS
VL: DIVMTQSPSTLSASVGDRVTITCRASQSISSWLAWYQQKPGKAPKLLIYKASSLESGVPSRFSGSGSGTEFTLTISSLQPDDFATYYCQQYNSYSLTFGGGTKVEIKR
notes: IgG1 expressed in HEK293
In turn, B4 showed an EC50 in assay [3] of 0.597 ng/mL. Further, the “EC50 of simulated killing activity” value in assay [5] is 217 ng/mL. In assay [2], this molecule registered a Kd of 379 pM, a koff of 0.00021 s⁻¹ and a kon of 555000 M⁻¹ s⁻¹.

B5: CD25Q14-BA458-IgG1 (antibody, V domains shown)
VH: EVQLVQSGAEVKKPGESLKISCKGSGYSFSNYWIGWVRQMPGKGLEWMGIISPGDSTTKYSPSFQGQVTFSADKSTSTAYLQWSSLQASDTAMYYCVRGPYYLDYWGQGTLVTVSS
VL: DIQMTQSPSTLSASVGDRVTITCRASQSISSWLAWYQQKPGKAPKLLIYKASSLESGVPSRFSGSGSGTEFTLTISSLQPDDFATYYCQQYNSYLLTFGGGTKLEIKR
notes: IgG1 expressed in HEK293
The molecule B5 yielded an EC50 in assay [3] of 1 ng/mL. In assay [4], the “EC50 of simulated killing activity” value is 266 ng/mL. In assay [2], this molecule had a Kd of 596 pM, a koff of 0.000216 s⁻¹ and a kon of 362000 M⁻¹ s⁻¹.

B6: CD25Q3-BA125-IgG1 (antibody, V domains shown)
VH: EVQLVQSGAEVKKPGESLKISCKGSGYSFANYWIVWVRQMPGKGLEWMGIIYPDDSETRYSPSFQGQVTFSADKSISTAYLQWSSLKASDTAMYYCTRGPYYSDYWGQGTLVTVSS
VL: DIQMTQSPSTLSASVGDRVTITCRASQIISGYLAWYQQKPGKAPKLLIYKASSLESGVPSRFSGSGSGAEFTLTISSLQPDDFATYYCQQYNSYTWTFGQGTKVEIKR
notes: IgG1; also called CD25Q2-BA125
Take B6: the “EC50 of simulated killing activity” value in assay [5] is 251 ng/mL. In addition, in assay [2], the Kd turned out to be 431 pM, the koff worked out at 0.000301 s⁻¹ and the kon came out at 699000 M⁻¹ s⁻¹. The same molecule displayed an EC50 in assay [6] of 1.61 ng/mL.

B7: CD25Q14-BA448-IgG1 (antibody, V domains shown)
VH: EVQLVQSGAEVKKPGESLKISCKGSGYNFANYWIVWVRQMPGKGLEWMGITYPDDSETRYSPSFQGQVTFSADKSISTAYLQWSSLKASDTAMYYCTRGPYYSDYWGQGTLVTVSS
VL: DIQMTQSPSTLSASVGDRVTITCRASQSISSWLAWYQQKPGKAPKLLIYKASSLESGVPSRFSGSGSGTEFTLTISSLQPDDFATYYCQQYDRFSWTFGQGTKVEIKR
notes: IgG1; The VH is copied as printed. 'YVVGQG' near its end may be a misprint of 'YWGQG'
Regarding B7, the EC50 in assay [3] was found to be 2.68 ng/mL. Also, in assay [2], the Kd was determined as 904 pM, the koff was 0.000531 s⁻¹ and the kon is 587000 M⁻¹ s⁻¹.

B8: CD25Q14-CA705-IgG1 (antibody, V domains shown)
VH: EVQLVQSGAEVKKPGESLKISCKGSGYSFANYWIVWVRQMPGKGLEWMGIIYPDDSETRYSPSFQGQVTFSADKSISTAYLQWSSLKASDTAMYYCTRGPYYSDYWGQGTLVTVSS
VL: DIQMTQSPSTLSASVGDRVSITCRASQSIGSWLAWYQQKPGKAPKLLIFEASNLESGVPSRFSGSGSGTEFTLTISNLQPDDFATYYCQQYNSYSLTFGGGTKVEIKR
notes: IgG1 expressed in HEK293
B8: in assay [5], the “EC50 of simulated killing activity” value was 409 ng/mL. In assay [2], the Kd came out at 1970 pM, the koff turned out to be 0.000752 s⁻¹ and the kon came to 381000 M⁻¹ s⁻¹. In assay [1], this molecule yielded an EC50 of 4.77 ng/mL.

B9: CD25Q11-BA422-IgG1 (antibody, V domains shown)
VH: QVQLVQSGAEVKKPGSSVKVSCKASGGTFSSSAISWVRQAPGQGLDWMGRIIPLLNIADYAQKFQGRVTFTADKSTNTAYMELSSLRSEDTAVYYCARDGSGYDSNYWYFDLWGRGTLVTVSS
VL: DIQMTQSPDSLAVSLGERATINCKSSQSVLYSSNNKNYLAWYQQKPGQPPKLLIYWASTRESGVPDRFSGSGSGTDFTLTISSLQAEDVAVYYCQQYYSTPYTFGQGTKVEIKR
notes: IgG1 expressed in HEK293
As for B9, the EC50 in assay [3] is 1.3 ng/mL. The “EC50 of simulated killing activity” value in assay [5] is 836 ng/mL. The “% PSTAT5 in CD3 positive T cells of PBMC after IL2, with 10 µg/mL antibody” value (“% PSTAT5 in CD3 positive T cells of PBMC” for short) in assay [7] turned out to be 18.1%.

B10: CD25Q11-BA415-IgG1 (antibody, V domains shown)
VH: QVQLVQSGTEVKKPGESLKISCEGVGYSFTTYWIGWVRQMPGKGLEWMGIIYPGDSITRYSPSFQGQVTISADKSINTAYLQWSSLMASDTAMYYCVRGPHWGDYWGQGTLVTVSS
VL: DIQMTQSPSTLSASVGDRVTITCRASQSISTWLAWYQQKPGKAPKLLIYKASSLESGVPSRFSGSGSGTEFTLTISSLQPDDFAAYYCQQYSSYSWTFGQGTKVEIKR
notes: IgG1 expressed in HEK293
As for B10, the “EC50 of simulated killing activity” value in assay [4] was 233 ng/mL. In assay [2], this molecule had a Kd of 614 pM, a koff of 0.000199 s⁻¹ and a kon of 323000 M⁻¹ s⁻¹. Also, the EC50 in assay [1] was 0.941 ng/mL.

B11: CD25Q2-BA9-IgG1 (antibody, V domains shown)
VH: QVQLQQWGAGLLKPSETLSLTCAVYGGSFSGYYWSWIRQPPGKGLEWIGEIDHSGSTIYNPSLKSRVTISLDTSKNQFSLKLSSVTAADTALYYCARGEAFDIWGQGTMVTVSS
VL: DIVMTQSPSTLSASVGDRVTITCRASQSLRSYLAWYQQKPGKAPKLLIYKASSLESGVPSRFSGSGSGTEFTLTISSLQPDDFATYYCQQYNSYSWTFGQGTKVEIKR
notes: IgG1 expressed in HEK293; also called CD25Q-BA9-IgG1
As to B11, the “EC50 of simulated killing activity” value in assay [5] is 236 ng/mL. Besides, in assay [2], the Kd worked out at 843 pM, the koff was 0.000586 s⁻¹ and the kon was 696000 M⁻¹ s⁻¹. This molecule showed an EC50 in assay [6] of 3.33 ng/mL. The “% PSTAT5 in CD3 positive T cells of PBMC” value in assay [7] is 26.1%.

B12: CD25Q11-BA402-IgG1 (antibody, V domains shown)
VH: QVQLVQSGAEVKKPGESLKISCKGSGYSFSNYWIAWVRQMPGKGLEWMGIIYPGDSATRYSPSFQGQVTISADKSINTAYLQWSSLRASDTAMYYCARGPYYFEYWGQGTLVTVSS
VL: DIVMTQSPSTLSASVGDRVTLTCRASQSISSYLAWYQQKPGKAPKLLIYKASTLESGVPSRFSGSGSGTEFTLTISSLQPDDFATYYCQHYNSYSVTFGGGTKVEIKR
notes: IgG1 expressed in HEK293
Regarding B12, in assay [5], the “EC50 of simulated killing activity” value is 443 ng/mL. In assay [2], this molecule returned a Kd of 607 pM, a koff of 0.000212 s⁻¹ and a kon of 350000 M⁻¹ s⁻¹. Further, the midpoint of the response in assay [6], the EC50, lay at 0.674 ng/mL.

B13: CD25Q11-BA410-IgG1 (antibody, V domains shown)
VH: QVQLQQWGAGLLKPSETLSLTCAVYGGSFSGHYWSWIRQSPGKGLEWIGEIDHSGNAIYNPSLKSRVTISIDTSKNQFSLKLSSVTAADTAVYYCARGEAFDLWGQGTMVTVSS
VL: not shown
notes: IgG1 expressed in HEK293
Turning to B13, in assay [5], the “EC50 of simulated killing activity” value was 215 ng/mL. Also, in assay [2], binding was characterised by a dissociation constant (Kd) of 4810 pM, the koff came to 0.00674 s⁻¹ and the kon worked out at 1.4e+06 M⁻¹ s⁻¹. Moreover, in assay [7], the “% PSTAT5 in CD3 positive T cells of PBMC” value came to 16.8%. Further, in assay [1], a half-maximal response (EC50) required 16.8 ng/mL.
